Data set [1] relates to T1, YefM-His6sl (antitoxin);YoeB-His6sl (toxin) (Streptomyces lividans 1326?;Streptomyces lividans 1326?), ORF:ca022027+Q9Z4V8.
T1 sequence 1: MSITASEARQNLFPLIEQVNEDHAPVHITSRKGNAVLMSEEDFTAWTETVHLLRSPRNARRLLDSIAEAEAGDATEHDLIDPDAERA
T1 sequence 2: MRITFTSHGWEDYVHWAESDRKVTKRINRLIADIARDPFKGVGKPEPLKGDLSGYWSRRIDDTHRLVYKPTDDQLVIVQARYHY
Put plainly: EMSA.

Data set [2] relates to T2, YefMsl-YoeBsl antitoxin (untagged YefM of natural complex);YoeB-His6sl (toxin) (Streptomyces lividans 1326?;Streptomyces lividans 1326?), ORF:ca022027+Q9Z4V8.
T2 sequence 1: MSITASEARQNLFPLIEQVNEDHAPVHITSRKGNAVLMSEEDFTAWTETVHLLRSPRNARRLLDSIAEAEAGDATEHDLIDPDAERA
T2 sequence 2: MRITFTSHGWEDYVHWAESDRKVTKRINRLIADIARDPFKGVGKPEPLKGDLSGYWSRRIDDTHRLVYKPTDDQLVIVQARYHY
Nature of the data set: EMSA.

The target in data set [3] is T3, S. lividans antitoxin YefM-His6sl (Streptomyces lividans, UniProt Q9Z4V7 1-87).
T3 construct: YefMsl, putative antitoxin of the yefM/yoeBsl operon of Streptomyces lividans 1326; identical to S. coelicolor SCO2235 (YefMsc); 9.7 kDa; Cloned with primers LS-005/LS-022 between NdeI and XhoI of pET22b; also called YefMsl; source: E. coli BL21 (DE3), pET22b-Anti, purified (NTA-Ni, dialysis); not shown: His6, C-terminal, kept
T3 sequence (looked up): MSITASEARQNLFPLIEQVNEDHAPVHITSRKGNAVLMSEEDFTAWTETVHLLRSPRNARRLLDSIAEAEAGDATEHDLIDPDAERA
Nature of the data set: native gel or EMSA. The note with it: both partners purified.

Take “TTTTTTCATATGACCAGTGCCTCCCTTCCTCGGCTGGTACAAGATATCGTACGAGTCTGGGACGGTCCACCGGAAAGCGGGAGCGGTACGTCCCGGCGCCCGCACGCCGTTCCCCGGCTACGCTCAGCCCGTACGACCTTGATCCGACCGGGCCCACGTGCCCCGCAGCCCGACAGGAGGCCGAGAATTCAAAAAA (double strand) [TA promoter (yefM/yoeBsl intergenic region)]”: the binding result in data set [1] and in data set [2] was “binds” each time.

B1: S. lividans toxin YoeB-His6sl (natural protein, Streptomyces lividans, UniProt Q9Z4V8 1-84, looked up)
chain: MRITFTSHGWEDYVHWAESDRKVTKRINRLIADIARDPFKGVGKPEPLKGDLSGYWSRRIDDTHRLVYKPTDDQLVIVQARYHY
notes: also called YoeBsl; toxin-His6; not shown: His6, C-terminal, kept
For B1, the binding result in data set [3] was “binds”.

The record behind these values is PMC3303803, “Identification of the First Functional Toxin-Antitoxin System in Streptomyces” (PLoS ONE, 2012).
